Experimental data reported in the supplement of paper PMC10567573.
± gives the standard deviation.

Assay: protein stability index of a GFP-peptide fusion (GPS, HEK-293T) (PSI 1-6); higher = more stable
[1] = treatment: DMSO, c terminus: a fixed tail appended
[2] = treatment: MLN4924 1 uM, 8 h, c terminus: a fixed tail appended
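Note: 24-mer peptide tiles fused after GFP, lentivirally expressed, FACS-sorted into six equal bins by GFP/DsRed ratio, decoded by Illumina sequencing, PSI is the read-weighted mean bin number.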

Sequence	protein stability index [1]	protein stability index [2]	protein stability index (treatment: DMSO, c terminus: native)	protein stability index (treatment: MLN4924 1 uM, 8 h, c terminus: native)
IANPNSLHHVKTMWYPEIKHFCPR [RHOBTB2]	2.36 ± 0.25	2.64 ± 0.2	–	–
ICSSLQNLEKTIFCLQKLISLHPF [C8orf76]	3.28 ± 1	2.65 ± 0.39	–	–
IDFLRVVRNQQSLAVSNMGARSKG [PTPN9]	2.76 ± 0.17	3.46 ± 0.098	–	–
IEDSTGLNRPGPAPLSSRKHVLYV [TCF25]	2.27 ± 0.45	2.35 ± 0.31	–	–
IEQFSESHAIHVEEQSDQSFSSLE [IQUB]	5.1 ± 0.095	5.14 ± 0.17	–	–
IERCIFPERIYQGSSGSYFVKDPQ [PI4K2A]	3.25 ± 0.22	3.2 ± 0.35	–	–
IFSFLPAPDRLRASASCSHWRECL [FBXO33]	2.41 ± 0.28	2.07 ± 0.38	–	–
IITRHNLTYEFLQARLRQHYQTI [CLCN6]	–	–	2.75 ± 0.49	2.69 ± 0.46
ILTATVDNANILLQIDNARLAADD [KRT17]	3.29 ± 0.075	3.26 ± 0.19	–	–
IMDTVGNIWVCYASYVVFRIIYML [SLC19A2]	2.83 ± 0.41	3.12 ± 0.53	–	–
IMTDLYYLSQTDGAGDWREKEAKD [FUT8]	3.59 ± 0.42	3.69 ± 0.32	–	–
INYCALNKPGCEHECVNMEESYYC [MATN2]	3.26 ± 0.7	3.28 ± 0.64	–	–
IPLEQGSSCNGPGQTTGHPYYLRS [FAN1]	5.05 ± 0.38	5 ± 0.18	–	–
IPPMAQPGLPPVPGAPGMPPGIPP [ZNF207]	4.29 ± 0.24	4.4 ± 0.35	–	–
IQEQKVVLEENGEKNQVQLGKLEA [SASS6]	5.2 ± 0.22	5.42 ± 0.3	–	–
IQFKKHEEEGIETQYFAELLMTSG [CNOT7]	2.82 ± 0.21	2.82 ± 0.35	–	–
IQQALTMFPGVLLPLLESCSVRPD [TCF25]	2.4 ± 0.5	3.18 ± 0.58	–	–
ISEHEHFTDFNATSALFWEQHDLV [CLPTM1]	3.33 ± 0.27	3.38 ± 0.35	–	–
ITHTREEQPHGRSRRREQSSSRNS [ZNF8]	5.33 ± 0.37	5.41 ± 0.13	–	–
ITVKNLRMAIGYLHSHRHLYPEGI [POMT2]	3.02 ± 0.38	2.88 ± 0.58	–	–
IVYHPYRPLLQYVQDMGQEDMLLP [CCNC]	2.25 ± 0.57	1.93 ± 0.34	–	–
IWSEVFTVEKPGGKKVAVVLMDTQ [ATL3]	2.2 ± 0.34	2.37 ± 0.39	–	–

Sequence	protein stability index [1]	protein stability index [2]	protein stability index (treatment: DMSO, c terminus: native)	protein stability index (treatment: MLN4924 1 uM, 8 h, c terminus: native)
IYKKYALQSAAGKDAAKQIAWIKD [PDS5B]	2.03 ± 0.3	2.61 ± 0.44	–	–
IYKLEEHEEFFPAFQAFTNDLLEI [CEP70]	2.43 ± 0.24	2.39 ± 0.072	–	–
IYLLRRQIRTVIQYQTVRYDILPL [CTDNEP1]	2.94 ± 0.34	2.56 ± 0.51	–	–
KAAGSVSKSTQFEYAWCLVRSKYN [FIS1]	2.24 ± 0.57	2.17 ± 0.37	–	–
KAFREEMKIFREKIEDFREEMWTF [CCDC70]	2.35 ± 0.2	2.03 ± 0.54	–	–
KAKQEKVSAQYLSEIEMAKAQRDY [FLOT1]	4.54 ± 0.12	4.64 ± 0.18	–	–
KAPYLCEATHEPAAARIRAQVPDT	4.65 ± 0.4	4.2 ± 0.68	–	–
KEDALLYQSKGYNDDYYEESYFTT [EMD]	4.2 ± 0.2	4.21 ± 0.18	–	–
KELIIFRLVAPTEGSLEWDILEVK [WDR41]	2.22 ± 0.24	2.21 ± 0.4	–	–
KEQHLWDVDLLDSKVIEILDSQTE [DLC1]	4.79 ± 0.26	4.5 ± 0.18	–	–
KEQNNLKQLEFGLKEAPVQDQGYK [ZNF8]	5.08 ± 0.2	5.25 ± 0.17	–	–
KERLLLSAAVPAGQTYVDAGYEVD [CHIT1]	4.67 ± 0.15	4.67 ± 0.12	–	–
KESMSEADRAQKMDGESEEEQESV [EHMT1]	5.71 ± 0.35	5.59 ± 0.23	–	–
KEVPVVHTETKTITYESSQVDPGT [EPB41L3]	5.33 ± 0.42	5.2 ± 0.25	–	–
KFSLLNAKREETKAMESQRAYRFV [SPOPL]	3.06 ± 0.42	3.13 ± 0.23	–	–
KGTENLQRAQAEVLQSVRELSRSR [FCHSD1]	4.61 ± 0.27	4.41 ± 0.38	–	–
KHGFSWAVPKFMKRIKVPDYKDRS [DLC1]	2.56 ± 0.08	2.94 ± 0.31	–	–
KIENGYPLHAPEAYFPYFKKHNVT [CDC14A]	2.2 ± 0.19	2.32 ± 0.18	–	–
KIQDLIDDKDALVFVLIDEVESLT [TRIP13]	2.46 ± 0.36	2.36 ± 0.11	–	–
KKDKDISKEKDTQNQNITLDCEGT [KMT2E]	5.23 ± 0.26	5.49 ± 0.28	–	–
KKIPIISNAMLVGDKLKFLSMLLT [ACSBG2]	2.3 ± 0.79	2.47 ± 0.6	–	–
KKNGLYLSLVLGNVNVTLLSKQAK [TMEM120A]	2.51 ± 0.64	2.57 ± 0.35	–	–

Sequence	protein stability index [1]	protein stability index [2]	protein stability index (treatment: DMSO, c terminus: native)	protein stability index (treatment: MLN4924 1 uM, 8 h, c terminus: native)
KLDQLDQDIENALSTSSSPSGTPT [DLC1]	5.2 ± 0.19	5.35 ± 0.27	–	–
KLKGAEVTYMNMTAYNKGRLQSSF [PLD5]	2.36 ± 0.22	2.72 ± 0.22	–	–
KLNKPPETLITTIDSSSSWWTNWV [CYB5A]	2.64 ± 0.23	2.47 ± 0.35	–	–
KLQVRLATKTEPKKLEKYLQKLSA [ELOA2]	2.31 ± 0.41	2.81 ± 0.42	–	–
KLYHQSKGPGAPQYPAGTQGEQLE [SPSB2]	4.72 ± 0.29	5 ± 0.32	–	–
KMNDSEGMDPERLKAFNMFVRLFV [NOL4L]	2.08 ± 0.11	2.23 ± 0.26	–	–
KMRMGGRVDFEEFVELIGPKLREE [CABP4]	3.62 ± 0.11	3.31 ± 0.12	–	–
KQLALDHFKKTKKMGGKDFSFRYQ [ATL3]	2.86 ± 0.17	3.12 ± 0.19	–	–
KQLEFCFSRENLSKDLYLISQMDS [LARP4]	2.4 ± 0.2	2.33 ± 0.28	–	–
KQTGIVFGSFLLLLFSLTQFSVVS [RTN1]	3.08 ± 0.46	3.48 ± 0.38	–	–
KRAESDSRKSSIPNNKEIPSHHPT [PTPRD]	5.151 ± 0.046	5.08 ± 0.078	–	–
KRLSRFDIEMSMRGDIFERIVHLQ [NLN]	1.84 ± 0.33	2 ± 0.026	–	–
KSFSMANGLNARMMHGGSYSLTTS [RAB40B]	3.1 ± 0.2	3.18 ± 0.2	–	–
KSGAIMSALSDTEIQREIGISNAL [PPFIA4]	4.02 ± 0.36	4.13 ± 0.18	–	–
KSRLSSVSVTYCSVSQDFPGSNLN [ETS2]	2.62 ± 0.26	2.64 ± 0.18	–	–
KTDFGSCLLQPPSCPNGMSAENGL [DLC1]	3.94 ± 0.14	3.87 ± 0.19	–	–
KTKWTKEDGHRTSTSAVPNLFVPL [ADD1]	3.27 ± 0.26	3.22 ± 0.28	–	–
KTSLLDQLTNTSGTVIGVTSCIVI [NETO1]	3.14 ± 0.51	2.76 ± 0.43	–	–
KVESGAWIGYEHTSFCGQQFILER [CRYBA1]	2.18 ± 0.26	2.18 ± 0.19	–	–
KVLEALKLKGAEVTYMNMTAYNKG [PLD5]	2.18 ± 0.6	2.42 ± 0.39	–	–
KVLLDCGADPDSRDFDNNTPLHIA [FEM1A]	4.02 ± 0.17	4.07 ± 0.15	–	–
